One assay deals with Islr2, AVEXIS protein. The assay can be described thus: method not stated; the filers' own unpublished determination ('in preparation'), used to calibrate the AVEXIS screen.
The target of assay [1] is human Netrin1, recombinant AVEXIS protein (biotinylated when immobilised) (human) (UniProt O95631). The assay can be described thus: AVEXIS, prey on bait NTN1; dark = Binding.
Assay [2] deals with biotinylated recombinant human DCC (human) (UniProt P43146). The assay can be described thus: AVEXIS, prey on bait DCC; white = No binding.
The target of assay [3] is human Netrin-3, AVEXIS protein (human) (UniProt O00634). The assay can be described thus: AVEXIS, prey on bait NTN3; white = No binding.
Assay [4] has as its target human Netrin-4, AVEXIS protein (human) (UniProt Q9HB63). The assay can be described thus: AVEXIS, prey on bait NTN4; white = No binding.
Assay [5] concerns the target human Netrin-G1, AVEXIS protein (human) (UniProt Q9Y2I2). The assay can be described thus: AVEXIS, prey on bait NTNG1; white = No binding.
The target of assay [6] is human Netrin-G2, AVEXIS protein (human) (UniProt Q96CW9). The assay can be described thus: AVEXIS, prey on bait NTNG2; white = No binding.
In assay [7] the target is biotinylated recombinant human UNC5B (human) (UniProt Q8IZJ1). The assay can be described thus: AVEXIS, prey on bait UNC5B; white = No binding.
Assay [8] has as its target human DRAXIN, AVEXIS prey or bait protein (human) (UniProt Q8NBI3). The assay can be described thus: AVEXIS, prey on bait DRAXIN; white = No binding.
The target in assay [9] is human DRAXIN 21 amino acid Netrin binding fragment, AVEXIS prey or bait protein (human). The assay can be described thus: AVEXIS, prey on bait DRAXIN 21aa; white = No binding.
The target of assay [10] is Matn4 ECD, mono-biotinylated bait protein (positive control). The assay can be described thus: AVEXIS, prey on bait Matn4 (+), positive control for the prey; dark = Binding.
Assay [11] has as its target zebrafish Netrin1a, AVEXIS bait or prey protein (zebrafish). The assay can be described thus: AVEXIS, prey on bait zNetrin1a, lower value; grey = Weak binding.
For assay [12] the target is unchanged. The assay can be described thus: AVEXIS, prey on bait zNetrin1a, upper value; grey = Weak binding.
In assay [13] the target is human DRAXIN, AVEXIS prey or bait protein (human) (UniProt Q8NBI3). The assay can be described thus: AVEXIS, prey on bait hDRAXIN, lower value; black = Binding.
The target is the same in assay [14]. The assay can be described thus: AVEXIS, prey on bait hDRAXIN, upper value; black = Binding.
Assay [15] addresses zebrafish DraxinA, AVEXIS prey or bait protein (zebrafish) (UniProt Q4V9H3). The assay can be described thus: AVEXIS, prey on bait zDraxinA, lower value; black = Binding.
Assay [16] shares this target. The assay can be described thus: AVEXIS, prey on bait zDraxinA, upper value; black = Binding.
For assay [17], the target named is zebrafish DraxinB, AVEXIS protein (zebrafish). The assay can be described thus: AVEXIS, prey on bait zDraxinB, lower value; black = Binding.
Assay [18] shares this target. The assay can be described thus: AVEXIS, prey on bait zDraxinB, upper value; black = Binding.
Assay [19] has as its target human Netrin1, recombinant AVEXIS protein (biotinylated when immobilised) (human) (UniProt O95631). The assay can be described thus: AVEXIS, prey on bait hNETRIN1, lower value; white = No binding.
Assay [20] shares this target. The assay can be described thus: AVEXIS, prey on bait hNETRIN1, upper value; white = No binding.
Assay [21] has as its target zebrafish Netrin1a, AVEXIS bait or prey protein (zebrafish). The assay can be described thus: AVEXIS, prey on bait zNetrin1a, lower value; white = No binding.
For assay [22] the target is unchanged. The assay can be described thus: AVEXIS, prey on bait zNetrin1a, upper value; white = No binding.

The text below walks through data of US20160347802A1.

human DRAXIN, AVEXIS prey or bait protein (human), sequence (Q8NBI3 26-349): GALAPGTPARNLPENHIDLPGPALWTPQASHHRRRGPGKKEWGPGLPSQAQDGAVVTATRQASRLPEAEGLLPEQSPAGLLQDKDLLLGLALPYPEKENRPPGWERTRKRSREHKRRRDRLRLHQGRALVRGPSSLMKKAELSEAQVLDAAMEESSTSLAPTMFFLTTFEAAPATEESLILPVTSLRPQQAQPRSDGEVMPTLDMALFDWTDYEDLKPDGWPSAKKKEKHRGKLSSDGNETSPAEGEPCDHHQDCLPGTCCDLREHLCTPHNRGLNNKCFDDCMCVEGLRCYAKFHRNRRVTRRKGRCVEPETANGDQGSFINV
zebrafish DraxinA, AVEXIS prey or bait protein (zebrafish), sequence (Q4V9H3 other isoform, or with tags, fused parts or gaps): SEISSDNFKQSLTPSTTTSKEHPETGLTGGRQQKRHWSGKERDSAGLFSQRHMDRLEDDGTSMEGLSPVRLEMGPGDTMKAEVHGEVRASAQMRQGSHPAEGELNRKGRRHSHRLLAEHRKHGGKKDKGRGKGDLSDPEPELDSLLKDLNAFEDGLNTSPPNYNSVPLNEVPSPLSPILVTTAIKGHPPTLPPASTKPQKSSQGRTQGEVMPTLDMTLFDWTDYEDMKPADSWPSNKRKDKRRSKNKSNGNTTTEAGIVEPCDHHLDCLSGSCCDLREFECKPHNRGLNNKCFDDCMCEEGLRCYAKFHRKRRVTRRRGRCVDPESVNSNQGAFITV
human DRAXIN 21 amino acid Netrin binding fragment, AVEXIS prey or bait protein (human), sequence (peptide, as listed by the source): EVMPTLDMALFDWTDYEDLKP
human Netrin-3, AVEXIS protein, O00634 28-580 (ligand; other documents disagree on this pair), sequence (O00634 28-580): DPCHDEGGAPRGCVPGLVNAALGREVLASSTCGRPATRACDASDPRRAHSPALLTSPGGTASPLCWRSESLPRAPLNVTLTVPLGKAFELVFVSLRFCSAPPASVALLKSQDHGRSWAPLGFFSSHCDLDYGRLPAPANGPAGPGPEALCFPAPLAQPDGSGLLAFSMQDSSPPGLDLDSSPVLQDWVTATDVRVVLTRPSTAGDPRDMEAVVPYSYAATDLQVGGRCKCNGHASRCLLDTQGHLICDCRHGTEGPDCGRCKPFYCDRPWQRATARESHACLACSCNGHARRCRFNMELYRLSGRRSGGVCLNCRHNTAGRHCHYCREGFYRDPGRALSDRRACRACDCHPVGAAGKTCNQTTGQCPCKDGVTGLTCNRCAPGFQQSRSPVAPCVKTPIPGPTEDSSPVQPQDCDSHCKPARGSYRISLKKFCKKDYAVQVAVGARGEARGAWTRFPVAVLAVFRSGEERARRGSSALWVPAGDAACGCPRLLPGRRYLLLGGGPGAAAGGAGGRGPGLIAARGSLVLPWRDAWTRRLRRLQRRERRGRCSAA
human Netrin-3, AVEXIS protein (human), sequence (O00634 28-580): as above
human Netrin-G1, AVEXIS protein (human), sequence (Q9Y2I2 29-510): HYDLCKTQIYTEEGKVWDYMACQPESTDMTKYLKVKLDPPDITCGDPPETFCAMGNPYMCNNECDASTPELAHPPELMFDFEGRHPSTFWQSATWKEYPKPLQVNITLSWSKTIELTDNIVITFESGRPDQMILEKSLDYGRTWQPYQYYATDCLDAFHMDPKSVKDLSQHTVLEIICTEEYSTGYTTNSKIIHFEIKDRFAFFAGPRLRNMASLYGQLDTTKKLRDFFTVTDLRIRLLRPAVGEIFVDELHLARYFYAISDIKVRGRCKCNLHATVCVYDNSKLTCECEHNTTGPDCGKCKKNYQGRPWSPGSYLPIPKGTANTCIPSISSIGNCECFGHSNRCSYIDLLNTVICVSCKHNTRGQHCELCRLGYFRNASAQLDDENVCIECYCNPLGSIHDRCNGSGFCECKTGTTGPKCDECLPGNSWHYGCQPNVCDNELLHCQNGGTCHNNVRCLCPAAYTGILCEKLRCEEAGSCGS
human Netrin-4, AVEXIS protein (human), sequence (Q9HB63 19-628): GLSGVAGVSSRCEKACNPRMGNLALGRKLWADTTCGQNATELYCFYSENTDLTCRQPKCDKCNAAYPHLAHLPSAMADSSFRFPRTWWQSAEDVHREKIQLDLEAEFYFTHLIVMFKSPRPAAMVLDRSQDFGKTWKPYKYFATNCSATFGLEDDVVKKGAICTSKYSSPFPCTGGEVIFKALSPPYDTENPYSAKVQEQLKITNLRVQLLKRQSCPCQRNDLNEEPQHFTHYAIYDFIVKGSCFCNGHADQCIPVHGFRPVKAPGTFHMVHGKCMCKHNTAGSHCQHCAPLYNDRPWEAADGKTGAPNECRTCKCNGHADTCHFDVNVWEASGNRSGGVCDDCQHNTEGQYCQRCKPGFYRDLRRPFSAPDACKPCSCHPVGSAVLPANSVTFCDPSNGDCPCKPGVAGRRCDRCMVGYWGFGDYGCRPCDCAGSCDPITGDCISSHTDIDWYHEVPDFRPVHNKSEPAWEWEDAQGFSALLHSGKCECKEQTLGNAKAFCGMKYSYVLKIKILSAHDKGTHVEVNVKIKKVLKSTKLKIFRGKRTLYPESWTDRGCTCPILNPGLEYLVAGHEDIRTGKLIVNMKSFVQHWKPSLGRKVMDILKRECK
human Netrin-G2, AVEXIS protein (human), sequence (Q96CW9 18-507): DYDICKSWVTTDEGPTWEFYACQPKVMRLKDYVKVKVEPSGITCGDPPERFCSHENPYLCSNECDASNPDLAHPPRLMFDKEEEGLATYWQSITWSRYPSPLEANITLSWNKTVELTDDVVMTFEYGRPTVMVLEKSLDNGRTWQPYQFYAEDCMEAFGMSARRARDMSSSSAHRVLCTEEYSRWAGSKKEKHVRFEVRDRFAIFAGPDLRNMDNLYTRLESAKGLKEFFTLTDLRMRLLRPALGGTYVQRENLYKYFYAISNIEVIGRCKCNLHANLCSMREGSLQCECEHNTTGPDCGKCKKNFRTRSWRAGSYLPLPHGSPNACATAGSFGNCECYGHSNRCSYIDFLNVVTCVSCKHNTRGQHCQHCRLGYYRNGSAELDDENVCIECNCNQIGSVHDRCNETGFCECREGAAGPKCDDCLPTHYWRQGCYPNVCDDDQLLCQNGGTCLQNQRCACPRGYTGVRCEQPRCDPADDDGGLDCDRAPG

In the assay with Islr2, AVEXIS protein, Vasn (Slit-like2), AVEXIS protein yielded a dissociation constant (Kd) of 12 µM and a half-life (t½) of 0.16 s.
Consider “biotinylated recombinant human DCC (from UniProt P43146 26-1097) (receptor)”, for which the A486nm in assay [1] stood at 0.377; in [2] it was 0.065; in assay [3], 0.076; in assay [4], 0.064; in assay [5], 0.065; in [6], 0.061. Moreover, the A486nm in assay [7] stood at 0.062; in assay [8] it was 0.064; in [9], 0.062; in assay [10], 0.278.
Turning to “biotinylated recombinant human UNC5B (from UniProt Q8IZJ1 27-377) (receptor)”, in assay [2], the A486nm stood at 0.064.
Take “human Netrin-3, AVEXIS protein (from UniProt O00634 28-580) (ligand)”: the A486nm in [2] stood at 0.067.
As to “human Netrin-3, AVEXIS protein, O00634 28-580 (ligand; other documents disagree on this pair)”, the A486nm in [7] came to 0.066.
As to “zebrafish DraxinB, AVEXIS protein (ligand)”, the A486nm in [11] is 0.084; in assay [12], 0.103.
Take “zebrafish Netrin1a, AVEXIS bait or prey protein (ligand)”: the A486nm stood at 0.249 in assay [13]; 0.136 in assay [14]; 0.276 in [15]; 0.323 in assay [16]; 0.174 in assay [17]; 0.235 in assay [18]. In addition, the A486nm in [19] came out at 0.059; in assay [20] it was 0.064; in [21], 0.063; in [22], 0.064.

What is called Kd is the constant that tells how readily two partners part at equilibrium. Low values mean a tighter complex, high ones a looser complex.
